# Measurements from patent US20220411492A1 (QILU PHARMACEUTICAL, published 2022).
# Numbering of substitutions follows the chain as printed. In names and notes the source's numbering stands. Read-outs that look alike come from different tables or passages of the source.
# B1: ch-287F12 (antibody, V domains shown)
# VH: QIQLVQSGPELKRPGETVRISCKASGFTFTTAGMHWVQKMAGKGLKWLGWTNTHSGEPKYAEDFKGRFAFSLDTSGSDAYLQIGNLKYEDAATYFCAKWGRGNALDYWGQGTSVTVSS
# VL: DIVMTQSPSSLTVTAGEKVTMTCKSSQSLLNSGNQKNYLTWYQQKPGQPPKLLIYWASTRESGVPDRFTGSGSGTDFTLTINTVQAEDLAVYYCQNTYSYPLTFGGGTKLELR
# notes: also called chimeric antibody of clone 287F12
# B2: ch-299B2-G33A (antibody, V domains shown)
# VH: QVQLKQSGPELVRPGASVKLSCKTSGYIFTNYWIHWVKQRSGQGLEWVVRIYPGTGNTYYNEKFTGKATLTADKSSSTAYMQLSSLKYEDSAVYFCSREGYGKGNSMDYWGQGTSVTVSS
# VL: DIVMTQSPSSLTVTAGEKVTMNCKSSQSLLNSANQKNYLTWYQQKPGQPPKLLFYWASTRESGVPDRFTGSGSGTDFTLTISSVQAEDLAVYHCQNAYYYPYTFGGGTKLEMK
# notes: also called chimeric antibody of 299B2-G33A
# B3: ch-299B2-S32A (antibody, V domains shown)
# VH: B2 VH
# VL: B2 VL with S32A, A33G
# notes: also called chimeric antibody of 299B2-S32A
# B4: ch-299B2-N31Q (antibody, V domains shown)
# VH: B2 VH
# VL: B2 VL with N31Q, A33G
# notes: Light chain variable region mutant N31Q of 299B2; also called ch-299B2-X31Q; chimeric antibody of 299B2-N31Q
# B5: hu253C4-N31Q-1 (antibody, V domains shown)
# VH: QVQLVQSGAEVKKPGASVKVSCKASGYIFTSYWIHWVRQAPGQGLEWMGRFYPGTGTAYYNENFEGRVTMTRDTSISTAYMELSRLRSDDTAVYYCAREGYGKGNSMDYWGQGTTVTVSS
# VL: DIVMTQSPDSLAVSLGERATINCKSSQSLLQSGNQKNYLTWYQQKPGQPPKLLIYWASTRESGVPDRFSGSGSGTDFTLTISSLQAEDVAVYYCQNDYYFPFTFGGGTKLEIK
# B6: hu253C4-N31Q-2 (antibody, V domains shown)
# VH: B5 VH
# VL: B5 VL with A19V, I21L, I81V, L84V
# B7: hu299B2-S32A-1 (antibody, V domains shown)
# VH: B5 VH with S31N, F51I, T57N, A58T, N63K, E65T, I76T, A79V, R85S, D89E
# VL: B5 VL with Q31N, S32A, D97A, F100Y, F102Y
# notes: also called humanized antibody hu299B2-S32A
# B8: hu299B2-S32A-4 (antibody, V domains shown)
# VH: QVQLVQSGAEVKKPGASVKVSCKTSGYIFTNYWIHWVRQAPGQGLEWMGRIYPGTGNTYYNEKFTGRVTLTADTSTSTVYMELSSLRSEDTAVYYCSREGYGKGNSMDYWGQGTTVTVSS
# VL: B5 VL with Q31N, S32A, D97A, F100Y, F102Y
# notes: as for B7
# B9: hu299B2-S32A-3 (antibody, V domains shown)
# VH: B8 VH with T24A, L70M, A72R, S97A
# VL: B5 VL with A19V, I21M, Q31N, S32A, I54F, L84V, Y93H, D97A, F100Y, F102Y
# notes: as for B7
# B10: hu299B2-S32A-2 (antibody, V domains shown)
# VH: B8 VH with T24A, L70M, A72R, S97A
# VL: B5 VL with I21M, Q31N, S32A, I54F, Y93H, D97A, F100Y, F102Y
# notes: as for B7
# B11: ch-253C4 (antibody, V domains shown)
# VH: QVQLKQSGAELVRPGASVSLSCKTSGYIFTSYWIHWVKQRSGQGLEWIGRFYPGTGTAYYNENFEGKATLTADRSSSTAYMQLSSLKSDDSAVYFCTREGYGKGNAMDYWGQGTSVTVSS
# VL: DIVMTQSPSSLTVTTGEKVTLSCKSSQSLLNSGNQKNYLTWYQQKSGQPPELLIYWASTRESGVPDRFTGSGSGTDFTLTVSSVQAEDLAVYYCQNDYYFPFTFGGGTKLEIK
# notes: also called chimeric antibody of clone 253C4
# B12: ch-59F9 (antibody, V domains shown)
# VH: QVQLQQSGAELMKPGASVKLPCKASGYTLTGYWIEWLKQRPRHGLEWIGEILLGSGSIKYNVKFKDKATFTADTSSNTAYMQLNSLTTEDSAIYYCARKGLRGNSFDYWGQGTTLTVSS
# VL: B11 VL with T15A, L21M, N37S, S46P, E51K, L52R, V81I, F100Y, G106S
# notes: also called chimeric antibody of clone 59F9
# B13: ch-253C4-G33A (antibody, V domains shown)
# VH: B11 VH
# VL: B11 VL with G33A
# notes: also called chimeric antibody of 253C4-G33A
# B14: ch-253C4-S32A (antibody, V domains shown)
# VH: B11 VH
# VL: B11 VL with S32A
# notes: also called chimeric antibody of 253C4-S32A
# B15: ch-253C4-N31Q (antibody, V domains shown)
# VH: B11 VH
# VL: B11 VL with N31Q
# notes: also called chimeric antibody of 253C4-N31Q
# Tests used:
# [1] = biological target: T1, human Claudin 18.2 (hCLDN18.2) (human, UniProt P56856-2 1-261); experiment: FACS, HEK293-hCLDN18.2 cells
# T1 construct: whole, on cells; also called CLDN18A2; claudin 18 splice variant 2
# From the text: (§1) FACS was used to detect the binding of anti-CLDN18.2 chimeric antibodies to HEK293 cells stably transfected expressing hCLDN18.2 (HEK293-hCLDN18.2) and gastric cancer tumor tissue-derived cells naturally expressing hCLDN18.2 (PDX-hCLDN18.2).
# [2] = biological target: T1, human Claudin 18.2 (hCLDN18.2); experiment: cell-based or functional assay
# [3] = biological target: T1, human Claudin 18.2 (hCLDN18.2); experiment: cell-based or functional assay; remark: listed apart in the source
# [4] = biological target: T1, human Claudin 18.2 (hCLDN18.2); experiment: FACS, PDX-hCLDN18.2 gastric cancer tumor tissue-derived cells
# From the text: as §1
# [5] = biological target: murine CLDN18.2 (mCLDN18.2) (murine) (UniProt P56857); experiment: FACS, HEK293-mCLDN18.2 cells
# [6] = biological target: T1, human Claudin 18.2 (hCLDN18.2); experiment: FACS, HEK293-hCLDN18.2 cells; remark: listed apart in the source
# Method: Following transient expression in mammalian cell lines, affinity assays were performed using HEK293-hCLDN18.2 cells and monoclonal cell supernatants were screened by FACS.
# [7] = biological target: T1, human Claudin 18.2 (hCLDN18.2); experiment: FACS, PDX-hCLDN18.2 gastric cancer tumor tissue-derived cells
# [8] = biological target: T1, human Claudin 18.2 (hCLDN18.2); experiment: FACS, HEK293-hCLDN18.2 cells
# [9] = biological target: T1, human Claudin 18.2 (hCLDN18.2); experiment: cell-based or functional assay; remark: listed apart in the source
# [10] = biological target: T1, human Claudin 18.2 (hCLDN18.2); experiment: FACS, HEK293-hCLDN18.2 cells; remark: listed apart in the source
# Method: (§2) Using flow cytometry measurement, the mean fluorescence intensity (hereinafter referred to as MFI) for each concentration was calculated by the software, and then the half binding concentration (EC₅₀) and the mean maximum fluorescence intensity (Top MFI) were calculated by GraphPad software, and the results were shown in Table 11.
# [11] = biological target: T1, human Claudin 18.2 (hCLDN18.2); experiment: cell-based or functional assay; remark: listed apart in the source
# [12] = biological target: T1, human Claudin 18.2 (hCLDN18.2); experiment: cell-based or functional assay; remark: listed apart in the source
# [13] = biological target: T1, human Claudin 18.2 (hCLDN18.2); experiment: FACS, PDX-hCLDN18.2 gastric cancer tumor tissue-derived cells; remark: listed apart in the source
# Method: as §2
binder,measurement,setting,value
B1,EC50,[1],2.65 nM
same,Mean maximum fluorescence intensity (Top MFI),[1],10900 MFI
same,CDC EC50,[2],0.141 µg/mL
same,CDC Maximum lysis (%),[2],96.3%
same,ADCC EC50,[3],0.017 µg/mL
same,ADCC Maximum lysis (%),[3],35.5%
same,EC50,[4],16.8 nM
same,Mean maximum fluorescence intensity (Top MFI),[4],17600 MFI
same,EC50,[5],1.14 nM
same,Mean maximum fluorescence intensity (Top MFI),[5],10200 MFI
B2,EC50,[6],0.157 µg/mL
same,Mean maximum fluorescence intensity (Top MFI),[6],6870 MFI
B3,EC50,[6],1.31 µg/mL
same,Mean maximum fluorescence intensity (Top MFI),[6],6500 MFI
B4,binding result,[6],binds
B5,EC50,[7],12 nM
same,Mean maximum fluorescence intensity (Top MFI),[7],16300 MFI
same,EC50,[8],0.216 nM
same,Mean maximum fluorescence intensity (Top MFI),[8],23000 MFI
same,ADCC EC50,[9],0.024 µg/mL
same,ADCC Maximum lysis (%),[9],54.9%
same,CDC EC50,[9],0.175 µg/mL
same,CDC Maximum lysis (%),[9],96.3%
same,EC50,[5],0.19 µg/mL
same,Mean maximum fluorescence intensity (Top MFI),[5],65000 MFI
B6,EC50,[7],11.4 nM
same,Mean maximum fluorescence intensity (Top MFI),[7],15600 MFI
same,EC50,[8],0.361 nM
same,Mean maximum fluorescence intensity (Top MFI),[8],29000 MFI
same,ADCC EC50,[9],0.037 µg/mL
same,ADCC Maximum lysis (%),[9],58.8%
same,CDC EC50,[9],0.149 µg/mL
same,CDC Maximum lysis (%),[9],97.5%
same,EC50,[5],0.026 µg/mL
same,Mean maximum fluorescence intensity (Top MFI),[5],36800 MFI
B7,EC50,[10],0.407 nM
same,Mean maximum fluorescence intensity (Top MFI),[10],29500 MFI
same,CDC EC50,[11],0.125 µg/mL
same,CDC Maximum lysis (%),[11],99.2%
same,EC50,[5],0.201 µg/mL
same,Mean maximum fluorescence intensity (Top MFI),[5],88800 MFI
same,ADCC EC50,[12],0.022 µg/mL
same,ADCC Maximum lysis (%),[12],57.9%
same,EC50,[13],29.7 nM
same,Mean maximum fluorescence intensity (Top MFI),[13],25200 MFI
B8,EC50,[10],0.318 nM
same,Mean maximum fluorescence intensity (Top MFI),[10],31200 MFI
same,CDC EC50,[11],0.123 µg/mL
same,CDC Maximum lysis (%),[11],99.9%
same,EC50,[5],0.281 µg/mL
same,Mean maximum fluorescence intensity (Top MFI),[5],84900 MFI
same,ADCC EC50,[12],0.024 µg/mL
same,ADCC Maximum lysis (%),[12],63.2%
same,EC50,[13],29.3 nM
same,Mean maximum fluorescence intensity (Top MFI),[13],23000 MFI
B9,EC50,[10],0.399 nM
same,Mean maximum fluorescence intensity (Top MFI),[10],40000 MFI
same,CDC EC50,[11],0.092 µg/mL
same,CDC Maximum lysis (%),[11],99.8%
same,EC50,[5],0.342 µg/mL
same,Mean maximum fluorescence intensity (Top MFI),[5],103000 MFI
same,ADCC EC50,[12],0.022 µg/mL
same,ADCC Maximum lysis (%),[12],69.1%
same,EC50,[13],26.1 nM
same,Mean maximum fluorescence intensity (Top MFI),[13],24300 MFI
B10,EC50,[10],0.463 nM
same,Mean maximum fluorescence intensity (Top MFI),[10],36700 MFI
same,CDC EC50,[11],0.129 µg/mL
same,CDC Maximum lysis (%),[11],99.7%
same,EC50,[5],0.111 µg/mL
same,Mean maximum fluorescence intensity (Top MFI),[5],90400 MFI
same,ADCC EC50,[12],0.028 µg/mL
same,ADCC Maximum lysis (%),[12],68.1%
same,EC50,[13],24.6 nM
same,Mean maximum fluorescence intensity (Top MFI),[13],22900 MFI
B11,EC50,[1],2.27 nM
same,Mean maximum fluorescence intensity (Top MFI),[1],10300 MFI
same,CDC EC50,[2],0.038 µg/mL
same,CDC Maximum lysis (%),[2],95.2%
same,ADCC EC50,[3],0.036 µg/mL
same,ADCC Maximum lysis (%),[3],35.7%
same,EC50,[4],9.73 nM
same,Mean maximum fluorescence intensity (Top MFI),[4],15500 MFI
same,EC50,[5],0.79 nM
same,Mean maximum fluorescence intensity (Top MFI),[5],8330 MFI
B12,EC50,[1],2.41 nM
same,Mean maximum fluorescence intensity (Top MFI),[1],9040 MFI
same,CDC EC50,[2],0.091 µg/mL
same,CDC Maximum lysis (%),[2],94.7%
same,ADCC EC50,[3],0.023 µg/mL
same,ADCC Maximum lysis (%),[3],29.4%
same,EC50,[4],12.4 nM
same,Mean maximum fluorescence intensity (Top MFI),[4],18100 MFI
same,EC50,[5],1.22 nM
same,Mean maximum fluorescence intensity (Top MFI),[5],11200 MFI
B13,EC50,[6],0.187 µg/mL
same,Mean maximum fluorescence intensity (Top MFI),[6],6840 MFI
B14,EC50,[6],0.207 µg/mL
same,Mean maximum fluorescence intensity (Top MFI),[6],6890 MFI
B15,EC50,[6],0.175 µg/mL
same,Mean maximum fluorescence intensity (Top MFI),[6],6560 MFI
